B1: fluoresceinated MERS2 peptide F-SVSKQAVCLMERHLRRVPGARRNELKVALSKELKER [modified: fluorescein (F-) printed at the N-terminus; fluorescein (F-) printed at the N-terminus] [T. brucei] / T. brucei MERS1(37–395), his-tagged [Trypanosoma brucei … (parent complex)
chain 1: SVSKQAVCLMERHLRRVPGARRNELKVALSKELKER
chain 2: LVPRGSMDDALRGELASALDTEGHALPFDVHLQQPHSSGDGTAGDTSTIQLEKLSHPPARFDLLTNSFVYKWQTKAALARKVSGPMREWAAELKYRTGVHIELEPTYPERLSENAVKGSGSDDGDGTQWGAYETADDVDITVYLFGSERGIFNCHKLMEAAIQQDPVYVRLGIFRRLANSSEVEWLMLRRINRELRPPDIPPISLKLPGKWTLLYERYKEAAIRTLWEETGITVDASNVYPTGHLYQTVPQYYWRVPVRYFVAEVPSDIRVEGPQVVPLQYMRNWDARLLRQSPDPIDRAWAQLADPATGCAWMKASMIDQLQKPLRGDNYMAIRYTPPPYSNLQEVVGLGDGSITPSTGNGEDAS

Variants of: B1
Assay: fluorescence polarization; value read at the highest MERS1 concentration point, about 13.3 µM (estimated from the x axis); parent: 53; read off a plot

Variant	response [mP]
chain 1 SVSKQAVCLMERHLRRVPGARRNELKVAPSKPLKER [chain 1 L29P, chain 1 E32P]	~21
